This experiment deals with Human Akt kinase (Upstate #14-276) (human), P31749. Description: cell-based or functional assay.

Square brackets hold non-standard residues; d marks the D form. Primed or numbered codes have the meaning given here. * marks the point of attachment. 10Ca = carbamate linkage conjugating the peptide-PEG to paclitaxel at C10; PEG(13) = PEG13 linker; Piv = CC(C)(C)C(=O)*; PXL = paclitaxel

This passage reports Ave. Akt Kinase Act. (% of parent peptide activity) results from patent US20050187147A1.

Chain of Human Akt kinase (Upstate #14-276) (human), P31749 (P31749 whole entry): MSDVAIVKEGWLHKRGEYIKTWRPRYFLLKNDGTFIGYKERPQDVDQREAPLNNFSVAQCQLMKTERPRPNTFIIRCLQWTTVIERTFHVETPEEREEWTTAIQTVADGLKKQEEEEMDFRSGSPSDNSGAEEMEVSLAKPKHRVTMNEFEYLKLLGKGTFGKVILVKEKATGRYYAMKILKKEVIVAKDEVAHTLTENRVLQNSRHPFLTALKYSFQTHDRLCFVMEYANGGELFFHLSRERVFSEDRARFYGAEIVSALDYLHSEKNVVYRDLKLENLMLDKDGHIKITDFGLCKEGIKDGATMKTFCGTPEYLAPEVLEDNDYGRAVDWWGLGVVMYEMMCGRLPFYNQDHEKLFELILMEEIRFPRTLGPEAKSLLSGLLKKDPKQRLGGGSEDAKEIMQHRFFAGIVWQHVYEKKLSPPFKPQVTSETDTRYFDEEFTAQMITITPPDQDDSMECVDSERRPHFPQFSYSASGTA

With Piv-GRPRTS[dS]FAEG-{PEG(13)-10Ca-PXL} [Pv-GRPRTSsFAEG-PEG(13)-10Ca-PXL], the Ave. Akt Kinase Act. (% of parent peptide activity) was found to be 0.
